Source: the supplement of paper PMC10126150
± gives the standard deviation of the averaged measurements.

System: ATP
Experiment: switch fluorescence ratio, 500 uM ATP over buffer (Cy3 cluster intensity, sum of 5 cycles each) (fold (ratio)); higher = stronger signal-on switching upon ATP binding; sequences stand for … in TCGTCGGCAGCGTCAGATGTGTATAAGAGACAGTTTTTTTTTTTTTTTTTTTTTTTTT…TC
Settings: aptamer strand: ATP DNA aptamer (quencher-CACCTGGGGGAGTATTGCGGAGGAAGG + anchor), 100 nM annealed; ATP concentration: 500 uM
How it was run: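 Between each of five buffer/ATP cycles, the flow-cell was stripped with NaOH and re-annealed. Each cycle imaged Cy3-labelled switching-strand clusters, annealed to 100 nM quencher-labelled ATP aptamer on a modified Illumina MiSeq flow-cell, first in selection buffer and then after 15 min with 500 uM ATP at 22 °C. The fluorescence ratio is summed target-cycle over summed buffer-cycle Cy3 intensity per cluster, averaged per switch-domain sequence, with clusters outside 100-1000 RFU excluded.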
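Also: ATP exposure 15 min at 22 °C before imaging.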

Row | Sequence | switch fluorescence ratio
1 | ACATGCGTGG | 0.992 ± 0.022
2 | ACATGGGCGT | 0.977 ± 0.036
3 | ACATGGGGGC | 1 ± 0.045
4 | ACATGGGGGT | 1.01 ± 0.014
5 | ACATGGGGTC | 0.977 ± 0.012
6 | ACATGGTTAT | 0.994 ± 0.018
7 | ACATGTAGGA | 1 ± 0.032
8 | ACATGTGACG | 0.98236 ± 0.00039
9 | ACATTAAGGG | 1.06 ± 0.031
10 | ACATTAGGCT | 1.02 ± 0.046
11 | ACATTCTTTA | 0.9628 ± 0.0042
12 | ACATTGATAT | 1.01 ± 0.011
13 | ACATTTAGCT | 1.01 ± 0.03
14 | ACATTTTTGC | 0.9897 ± 0.0011
15 | ACCAAATACT | 1.26 ± 0.014
16 | ACCAATATCT | 1.01 ± 0.068
17 | ACCAATGGGG | 1.02 ± 0.036
18 | ACCAATTCGC | 1.06 ± 0.029
19 | ACCAATTGAA | 1.01 ± 0.05
20 | ACCACCGAGG | 1.045 ± 0.0061
21 | ACCACGGGAA | 1.05 ± 0.032
22 | ACCAGCAGCC | 1.21 ± 0.025
23 | ACCAGGCCGC | 1.08 ± 0.03
24 | ACCAGGGAAA | 1.01 ± 0.014
25 | ACCAGGGGGA | 1.01 ± 0.023
26 | ACCAGGGGTT | 1.19 ± 0.027

Row | Sequence | switch fluorescence ratio
27 | ACCAGGTGAT | 4.78 ± 0.26
28 | ACCAGTCTAG | 0.979 ± 0.018
29 | ACCATTTTTT | 0.9862 ± 0.006
30 | ACCCAAAAAG | 1.05 ± 0.12
31 | ACCCACGGAG | 1.17 ± 0.014
32 | ACCCAGGAGC | 1.35 ± 0.12
33 | ACCCAGGTA | 2.1 ± 0.29
34 | ACCCGCTCTT | 1.13 ± 0.022
35 | ACCCTAGTTG | 1.148 ± 0.0094
36 | ACCCTCCGGC | 2.45 ± 0.026
37 | ACCCTTGGGG | 1.02 ± 0.064
38 | ACCGAGGGGT | 1.06 ± 0.077
39 | ACCGATTTTG | 0.994 ± 0.022
40 | ACCGATTTTT | 1.047 ± 0.01
41 | ACCGCAGGGG | 1.42 ± 0.6
42 | ACCGCATAGT | 2.57 ± 0.099
43 | ACCGCGAGGA | 1.54 ± 0.57
44 | ACCGCTCAGT | 1.06 ± 0.023
45 | ACCGCTTCTG | 1.04 ± 0.032
46 | ACCGGGCGAG | 1 ± 0.042
47 | ACCGGGGAAT | 1.02 ± 0.027
48 | ACCGGGGGCC | 1.02 ± 0.013
49 | ACCGGGTTTT | 1.03 ± 0.02
50 | ACCGTATCTT | 1.06 ± 0.053
51 | ACCGTCCAAA | 1.03 ± 0.024
52 | ACCGTGCCTG | 1.03 ± 0.072

Row | Sequence | switch fluorescence ratio
53 | ACCGTGGGTC | 1.02 ± 0.029
54 | ACCGTTACTT | 1.24 ± 0.065
55 | ACCGTTCACG | 1.02 ± 0.031
56 | ACCGTTCTGA | 1.016 ± 0.0092
57 | ACCTACCTCT | 1.48 ± 0.14
58 | ACCTACTGAG | 1.351 ± 0.0076
59 | ACCTAGTCGG | 1.01 ± 0.015
60 | ACCTAGTGGG | 1.005 ± 0.0087
61 | ACCTATGAGG | 1.02 ± 0.029
62 | ACCTATTTTT | 1.01 ± 0.017
63 | ACCTCCAACT | 1.179 ± 0.0092
64 | ACCTGAATTA | 1 ± 0.035
65 | ACCTGATAGT | 1.044 ± 0.0066
66 | ACCTGCAATT | 2.96 ± 0.044
67 | ACCTGGAATT | 1.01 ± 0.031
68 | ACCTGGGGGA | 1.07 ± 0.11
69 | ACCTGGTCTC | 1.07 ± 0.027
70 | ACCTGTATGG | 1.03 ± 0.044
71 | ACCTGTGGGG | 1 ± 0.027
72 | ACCTTGAATT | 1 ± 0.0029
73 | ACCTTGATGG | 0.976 ± 0.077
74 | ACCTTGGGAA | 1.01 ± 0.017
75 | ACCTTGTGCA | 1.02 ± 0.04
76 | ACCTTTAACT | 1.03 ± 0.017
77 | ACCTTTGGGC | 0.996 ± 0.039
78 | ACCTTTGTTT | 1.001 ± 0.0054

Row | Sequence | switch fluorescence ratio
79 | ACCTTTTACG | 1.15 ± 0.072
80 | ACCTTTTGTA | 1 ± 0.032
81 | ACGAAAATTA | 1.12 ± 0.14
82 | ACGAAAGGTG | 1.58 ± 0.072
83 | ACGAACTTGA | 1.19 ± 0.055
84 | ACGAATCCTT | 1.04 ± 0.013
85 | ACGAATGCGG | 0.941 ± 0.042
86 | ACGAATTTGT | 1.03 ± 0.038
87 | ACGAGACAGC | 1.191 ± 3.6e-05
88 | ACGAGAGTTG | 0.975 ± 0.021
89 | ACGAGCGATT | 1.7 ± 0.058
90 | ACGAGCTAGG | 1.13 ± 0.026
91 | ACGAGGGGAG | 1.02 ± 0.016
92 | ACGAGGGGCG | 1 ± 0.045
93 | ACGAGGTTAA | 1.01 ± 0.018
94 | ACGAGGTTGT | 0.982 ± 0.025
95 | ACGAGTACGG | 1.1 ± 0.025
96 | ACGAGTTAGG | 1.044 ± 0.0014
97 | ACGATAATTT | 1.18 ± 0.035
98 | ACGATCTGTG | 1.03 ± 0.033
99 | ACGATCTGTT | 1.0155 ± 0.00017
100 | ACGATGGCCT | 1 ± 0.014
101 | ACGATGGGCA | 1.05 ± 0.015
102 | ACGATGTGTT | 1.01 ± 0.025
103 | ACGATTTATC | 1.01 ± 0.016
104 | ACGATTTTGC | 1.04 ± 0.033

Row | Sequence | switch fluorescence ratio
105 | ACGATTTTTT | 0.993 ± 0.013
106 | ACGCATGGGT | 1.04 ± 0.028
107 | ACGCATTCAT | 1.14 ± 0.027
108 | ACGCCCGAAC | 1.452 ± 0.013
109 | ACGCCCGGGT | 1.08 ± 0.051
110 | ACGCCTTATT | 1.03 ± 0.02
111 | ACGCGAGTAT | 1.05 ± 0.019
112 | ACGCGCGTGT | 1.02 ± 0.017
113 | ACGCGGAGTG | 1.02 ± 0.016
114 | ACGCGGATTG | 1.002 ± 0.0017
115 | ACGCGGTA | 1.02 ± 0.058
116 | ACGCGGTGAC | 1.09 ± 0.025
117 | ACGCGTGAAG | 1.03 ± 0.021
118 | ACGCTCAGGT | 1.29 ± 0.041
119 | ACGCTCCAGC | 1.056 ± 0.0053
120 | ACGCTGCTAC | 4.48 ± 0.3
121 | ACGCTTTATG | 1.03 ± 0.04
122 | ACGCTTTTTT | 1.01 ± 0.024
123 | ACGGAAAACG | 1.023 ± 0.0093
124 | ACGGAAGGGC | 1.11 ± 0.059
125 | ACGGAGGGAA | 1.07 ± 0.085
126 | ACGGCAAAGG | 1.155 ± 0.0063
127 | ACGGCTCAGA | 1.013 ± 0.0079
128 | ACGGCTTTTG | 1.025 ± 0.009
129 | ACGGGAAAGT | 1.06 ± 0.089
130 | ACGGGAGAGG | 1.02 ± 0.035

Row | Sequence | switch fluorescence ratio
131 | ACGGGAGTGG | 0.998 ± 0.011
132 | ACGGGATTTG | 0.9822 ± 0.0073
133 | ACGGGATTTT | 1.03 ± 0.026
134 | ACGGGCCCGA | 1.02 ± 0.029
135 | ACGGGGAAAA | 1.03 ± 0.036
136 | ACGGGGAAAG | 0.9916 ± 0.0019
137 | ACGGGGACTG | 1.0927 ± 0.00086
138 | ACGGGGATCA | 0.981 ± 0.045
139 | ACGGGGATTT | 1.01 ± 0.019
140 | ACGGGGCCGC | 0.994 ± 0.045
141 | ACGGGGCTGG | 1.02 ± 0.048
142 | ACGGGGCTGT | 0.996 ± 0.017
143 | ACGGGGGACA | 1.02 ± 0.035
144 | ACGGGGGAGA | 1.24 ± 0.35
145 | ACGGGGGGTA | 1.02 ± 0.035
146 | ACGGGGGTTG | 1.03 ± 0.06
147 | ACGGGGGTTT | 0.997 ± 0.015
148 | ACGGGGTAGT | 1.02 ± 0.024
149 | ACGGGGTCGG | 1.01 ± 0.044
150 | ACGGGGTGCG | 0.986 ± 0.032
151 | ACGGGGTTCT | 0.965 ± 0.032
152 | ACGGGTAATG | 1.01 ± 0.035
153 | ACGGGTTTTG | 1.03 ± 0.024
